How the values were obtained:
[1] = target: C1q; test: SPR (Biacore 8K+), antibody captured by anti-human IgG Fc, C1q injected at 25 nM, mean response
[2] = target: human FcRn (human) (UniProt P55899); test: SPR (Biacore 8K+), antibody captured by anti-human kappa, human FcRn injected, pH 5.8; pH 5.8
[3] = target: cynomolgus FcRn (cynomolgus) (UniProt Q8SPV9); test: SPR (Biacore 8K+), antibody captured by anti-human kappa, cynomolgus FcRn injected, pH 5.8; pH 5.8

C1q, sequence (P02745 23-245, chain 1 of 3): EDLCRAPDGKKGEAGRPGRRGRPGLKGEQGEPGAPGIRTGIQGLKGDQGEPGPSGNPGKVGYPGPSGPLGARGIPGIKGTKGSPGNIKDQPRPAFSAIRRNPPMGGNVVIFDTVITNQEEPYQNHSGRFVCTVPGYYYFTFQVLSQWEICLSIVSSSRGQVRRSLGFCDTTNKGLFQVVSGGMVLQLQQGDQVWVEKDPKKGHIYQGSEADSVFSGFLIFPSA
C1q, sequence (P02746 28-253, chain 2 of 3, further chain): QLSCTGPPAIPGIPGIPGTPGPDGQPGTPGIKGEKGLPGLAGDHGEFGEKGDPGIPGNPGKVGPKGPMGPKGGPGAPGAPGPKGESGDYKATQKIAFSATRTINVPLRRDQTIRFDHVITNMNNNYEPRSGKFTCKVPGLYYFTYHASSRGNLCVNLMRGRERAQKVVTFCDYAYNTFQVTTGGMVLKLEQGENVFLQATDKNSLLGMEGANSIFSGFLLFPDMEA
C1q, sequence (P02747 29-245, chain 3 of 3, further chain): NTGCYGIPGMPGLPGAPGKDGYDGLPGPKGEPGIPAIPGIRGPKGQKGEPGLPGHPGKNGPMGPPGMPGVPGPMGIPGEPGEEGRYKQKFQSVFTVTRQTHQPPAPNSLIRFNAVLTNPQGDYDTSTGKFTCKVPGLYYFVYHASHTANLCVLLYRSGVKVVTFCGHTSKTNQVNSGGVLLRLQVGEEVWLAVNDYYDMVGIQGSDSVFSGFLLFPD

Row | RU at 25 nM C1q [1] | Substance | Kd [2] | Kd [3]
1 | 386 RU | Rituximab, an anti-CD20 antibody | – | –
2 | – | positive control based on the sequences of the anti-hOX40L antibody amlitelimab | 1.11 µM | 0.926 µM

From patent publication US20260217843A1
